Measurements as given in article doi:10.1101/2025.05.09.649859.

What was measured:
Conditions in all cases: 25 mM Tris-HCl pH 7.5, 2 mM MgCl2, 100 mM KCl (FP, 21 C) or 100-400 mM KCl (BLI, IgG on Protein A, 25 C)
J2 IgG HC A30P = assay: BLI
J2 IgG HC Y50F = assay: BLI
J2 IgG HC Y52F = assay: BLI
J2 IgG HC Y54A = assay: BLI
J2 IgG HC Y54F = assay: BLI
J2 IgG LC Y31A = assay: BLI
J2 IgG LC Y31F = assay: BLI
J2 IgG LC Y38F = assay: BLI
J2 IgG [1] = assay: BLI
J2 IgG [2] = assay: fluorescence polarization
J2 IgG [3] = assay: competition FP

**Q.** What does the source list for “GUUGUAAAGAAGGUCAAUAU / AUAUUGACCUUCUUUACAAC [20-bp dsRNA]”?
**A.** Kd (J2 IgG HC A30P): 0.12 µM; Kd (J2 IgG HC Y50F): 0.43 µM; Kd (J2 IgG HC Y52F): 0.22 µM; Kd (J2 IgG HC Y54A): 0.3 µM; Kd (J2 IgG HC Y54F): 0.71 µM; Kd (J2 IgG LC Y31A): 0.94 µM; Kd (J2 IgG LC Y31F): 0.36 µM; Kd (J2 IgG LC Y38F): 0.15 µM; Kd (J2 IgG [1]): 0.12 µM

**Q.** “GUUGUAAAGAAGGU / ACCUUCUUUACAAC [14-bp dsRNA]” was tested. Which Kd (J2 IgG [1]) did it give?
**A.** 2.1 µM

**Q.** Which Kd (J2 IgG [2]) does the source give for “GGCAAGGGUAUCAUGGCGGACGACCGGGGUUCGAACCCCGGAUCCGGCCGUCCGCCGUGAUCCAUGCGGUUACCGCCCGCGUGUCGAACCCAGGUGUGCC [VA-I RNA]” here?
**A.** 0.032 µM

**Q.** With “GUUGUAAAGAAGGUCAAUAUUGUACCAAACUUGAUGGAAA / UUUCCAUCAAGUUUGGUACAAUAUUGACCUUCUUUACAAC [40-bp dsRNA]” as the sequence, how does the Kd (J2 IgG [1]) read?
**A.** 0.08 µM

**Q.** Which IC50 (J2 IgG [3]) does the source give for “GUUGUAAAGAAGGUCAAUAUUGUACCAAACUUGAUGGAAAAGAACAACGU / ACGUUGUUCUUUUCCAUCAAGUUUGGUACAAUAUUGACCUUCUUUACAAC [50-bp dsRNA]” here?
**A.** 0.017 µM

**Q.** What about the Kd (J2 IgG [1]) of the same sequence?
**A.** 0.022 µM

**Q.** “GUUGUAAAGAAGGUCAAUAUUGUACCAAAC / GUUUGGUACAAUAUUGACCUUCUUUACAAC [30-bp dsRNA]” was tested. Which Kd (J2 IgG [1]) did it give?
**A.** 0.012 µM
